This note sets out measurements from publication PMC12709181.

The target of test [1] is proliferating cell nuclear antigen (PCNA) (yeast) (UniProt P15873).
Test [2] has the same target. The source holds these as a separate data set.

proliferating cell nuclear antigen (PCNA) (yeast), sequence (P15873 whole entry): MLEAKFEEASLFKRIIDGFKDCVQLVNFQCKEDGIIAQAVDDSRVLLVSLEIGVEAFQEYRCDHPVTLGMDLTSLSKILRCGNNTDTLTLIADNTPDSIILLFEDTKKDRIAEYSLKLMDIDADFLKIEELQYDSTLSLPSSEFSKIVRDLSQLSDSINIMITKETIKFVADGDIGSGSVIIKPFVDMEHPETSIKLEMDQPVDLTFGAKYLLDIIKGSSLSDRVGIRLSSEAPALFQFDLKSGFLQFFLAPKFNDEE

For “four-subunit yeast Pol ε with the P-domain mutation KKRL736-739AAAA in Pol2 (P3) (from UniProt P21951 1-2222; P24482 1-689; P27344 1-201; Q04603 1-196) (complex)”, the holoenzyme assay: product length of DNA synthesis on single-primed M13mp18 ssDNA with PCNA loaded by RFC (10 and 20 min); much less stimulation by PCNA in test [1] was determined as 400 bp. This substance showed a processivity assay under single-hit conditions: product length on primed M13mp18 ssDNA upon addition of PCNA (0, 5, 10, 20 min) in test [2] of 85 nts.
With “four-subunit yeast Pol ε with the P-domain mutations D695A, E696A, N698A, K745A in Pol2 (DENK) (from UniProt P21951 1-2222; P24482 1-689; P27344 1-201; Q04603 1-196) (complex)”, the holoenzyme assay: product length of DNA synthesis on single-primed M13mp18 ssDNA with PCNA loaded by RFC (10 and 20 min); stimulated by PCNA, although to a lesser extent than wild-type Pol ε in test [1] worked out at 3000 bp. The substance also had a processivity assay under single-hit conditions: product length on primed M13mp18 ssDNA upon addition of PCNA (0, 5, 10, 20 min); increase comparable to wild type in test [2] of 300 nts.
“wild-type four-subunit yeast DNA polymerase ε (Pol2, Dpb2, Dpb3, Dpb4) (from UniProt P21951 1-2222; P24482 1-689; P27344 1-201; Q04603 1-196) (complex)” returned a processivity assay under single-hit conditions: product length on primed M13mp18 ssDNA upon addition of PCNA (0, 5, 10, 20 min) in test [2] of 300 nts.
